Our source for the binding values is US20040146931.

The subject of this series is Gal11P-P53zf zinc finger (artificial). Nature of the series: cell_activity. As to conditions: EGFP over control, in vivo site selection.

For “CGGGACACGGG (double strand) [in vivo selected P53zf site 3]”, the binding is over 2 fold.
On to “CGGGACACGTG (double strand) [in vivo selected P53zf site 1]”, for which the binding (matches the consensus) is over 2 fold.
As for “CGGGACATGTG (double strand) [in vivo selected P53zf site 2]”, the binding is over 2 fold.
